Measurements: publication PMC10696418
Read-outs that look alike come from different tables or passages of the source.

Columns and labels:
Assay in all cases: SPR
[1] = molecular target: wild-type CRIg Ig V domain, His-tagged (human) (UniProt Q9Y279)
[2] = molecular target: CRIg-Mut-1 (CRIg Ig V domain mutant K15R/K36R/K62R/K72R/K110R), His-tagged (human)
[3] = molecular target: wild-type CRIg Ig V domain, His-tagged (human) (UniProt Q9Y279); remark: listed apart in the source
[4] = molecular target: CRIg-Mut-2 (CRIg Ig V domain mutant K15R/K36R/K62Q/K72R/K110R), His-tagged (human)

Substance	Ka-1 (two-state model, first step, association rate) [1] [M⁻¹ s⁻¹]	Ka-2 (two-state model, second step, forward rate) [1] [s⁻¹]	Kd [1] [nM]	Kd-1 (two-state model, first step, dissociation rate) [1] [s⁻¹]	Kd-2 (two-state model, second step, reverse rate) [1] [s⁻¹]	Kd [2] [nM]	Kd [3] [nM]	Kd [4] [nM]	Ka-1 (two-state model, first step, association rate) [2] [M⁻¹ s⁻¹]	Ka-2 (two-state model, second step, forward rate) [2] [s⁻¹]	Kd-1 (two-state model, first step, dissociation rate) [2] [s⁻¹]	Kd-2 (two-state model, second step, reverse rate) [2] [s⁻¹]	Ka-1 (two-state model, first step, association rate) [4] [M⁻¹ s⁻¹]	Ka-2 (two-state model, second step, forward rate) [4] [s⁻¹]	Kd-1 (two-state model, first step, dissociation rate) [4] [s⁻¹]	Kd-2 (two-state model, second step, reverse rate) [4] [s⁻¹]	also measured
C3b (from UniProt P01024 749-1663; P01024 749-1663) (domain or fragment)	25100	0.00166	47.2	0.00714	0.00533	25.2	7.29	16.2	–	–	–	–	–	–	–	–	koff [2]: 0.000441 s⁻¹; kon [2]: 18200 M⁻¹ s⁻¹; koff [3]: 0.000125 s⁻¹; kon [3]: 17100 M⁻¹ s⁻¹; koff [4]: 0.000203 s⁻¹; kon [4]: 12600 M⁻¹ s⁻¹
iC3b (from UniProt P01024 23-667; P01024 1321-1663) (domain or fragment)	35800	0.00463	10.5	0.0168	0.000105	115	68	84.6	7100	0.00589	0.0209	0.000231	10600	0.00469	0.0191	0.000227	Ka-1 (two-state model, first step, association rate) [3]: 16000 M⁻¹ s⁻¹; Ka-2 (two-state model, second step, forward rate) [3]: 0.00376 s⁻¹; Kd-1 (two-state model, first step, dissociation rate) [3]: 0.0207 s⁻¹; Kd-2 (two-state model, second step, reverse rate) [3]: 0.000206 s⁻¹
C3c (from UniProt P01024 23-667; P01024 749-954; P01024 1321-1663) (domain or fragment)	–	–	–	–	–	2780	–	1130	12000	0.0052	0.0491	0.00928	14800	0.00262	0.0271	0.00414	–
